{"source": "paper PMC7337906", "target": "T1, Tof1(613-728) minimal;Csm3(48-157) internal_change (Chaetomium thermophilum;Chaetomium thermophilum) (UniProt G0S825+Q2H3R6)", "T1 sequence 1": "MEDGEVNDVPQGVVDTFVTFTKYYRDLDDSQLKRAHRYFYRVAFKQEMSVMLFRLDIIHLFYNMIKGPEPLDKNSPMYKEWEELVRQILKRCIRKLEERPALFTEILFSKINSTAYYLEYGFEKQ", "T1 sequence 2": "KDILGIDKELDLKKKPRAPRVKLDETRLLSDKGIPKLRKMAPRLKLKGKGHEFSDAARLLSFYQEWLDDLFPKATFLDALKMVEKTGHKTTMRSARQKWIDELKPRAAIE", "assay": "EMSA", "conditions": "HBS-200 (20 mM HEPES pH 7.5, 200 mM NaCl, 1 mM TCEP) + 10% glycerol, 50 nM DNA, 30 min on ice; 6% polyacrylamide tris-glycine gel"}
{"sequence": "GTAGTTTGTACTGGTGACGA (double strand) [dsDNA 20 bp]", "values": [{"measurement": "binding signal (fold weaker than P1+P2)", "value": 2}]}
